Data reported in PMC6358683 (Proceedings of the National Academy of Sciences of the …, 2019).

Legend:
Test in all cases: ELISA
[1] = target: HA of A/Japan/305+/1957 (Influenza A virus A/Japan/305/1957 …, UniProt P03451)
[2] = target: HA of A/Solomon Islands/03/2006 (Influenza A virus A/Solomon …, UniProt A7Y8I1, strain)
[3] = target: HA of A/Thailand/CU44/2006 (Influenza A virus A/Thailand/CU44/2006 …, UniProt A7LI25, strain)
[4] = target: HA of A/Hong Kong/1/1968 (influenza A virus A/Hong Kong/1/1968 …, UniProt Q91MA7)

Measured: binding result

B1: C05 WT (antibody, V domains shown)
VH: QVQLQESGGGLVQPGESLRLSCVGSGSSFGESTLSYYAVSWVRQAPGKGLEWLSIINAGGGDIDYADSVEGRFTISRDNSKETLYLQMTNLRVEDTGVYYCAKHMSMQQVVSAGWERADLVGDAFDVWGQGTMVTVSS
VL: DIQLTQSPSSLSASVGDRVTLTCQASQDIRKFLNWYQQKPGKGPKLLIYDASNLQRGVPSRFSGGGSGTDFTLIISSLQPEDVGTYYCQQYDGLPFTFGGGTKVVIK
binds: all assays above
